From patent US20070286858A1 (Pfizer, published 2007) come the findings set out here.

The EC50 is the concentration giving half of the maximal effect. The term Kd denotes the constant that tells how readily two partners part at equilibrium. A higher Kd goes with lower affinity. Broadly, the koff is the rate constant with which the complex falls apart. A higher koff goes with fast dissociation. What is called kon is a measure of how fast the partners come together. Lower therefore signals slow association.

In one experiment the target is T1, baboon RAGE (baboon (Papio cyanocephalus), UniProt Q15109 23-404 (human entry)).
T1 construct: On transfected 293 cells or endogenous in baboon lung sections; also called 293-baboon RAGE; RAGE in baboon lung
T1 chain: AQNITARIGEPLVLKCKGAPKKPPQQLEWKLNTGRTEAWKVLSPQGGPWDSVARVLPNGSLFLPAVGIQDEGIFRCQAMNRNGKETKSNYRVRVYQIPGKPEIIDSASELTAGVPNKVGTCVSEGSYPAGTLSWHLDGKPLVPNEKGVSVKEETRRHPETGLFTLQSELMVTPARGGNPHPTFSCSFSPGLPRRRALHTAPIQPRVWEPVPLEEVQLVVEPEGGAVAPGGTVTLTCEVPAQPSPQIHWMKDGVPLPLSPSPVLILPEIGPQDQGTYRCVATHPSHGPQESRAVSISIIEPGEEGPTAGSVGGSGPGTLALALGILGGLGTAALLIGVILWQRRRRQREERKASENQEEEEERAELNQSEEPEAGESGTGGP
Kind of experiment: cell-based ELISA, 293 cells transfected with baboon RAGE. The protocol:
(§1) Human embryonic kidney 293 cells (American Tissue Type Culture, Manassas, Va.) cells were plated at 5×10⁶ cells per 10 cm² tissue culture plate and cultured overnight at 37° C. The next day cells were transfected with RAGE expression plasmids (pAdori1-3 vector encoding mouse, human, baboon, cynomologus monkey or rabbit RAGE) using LF2000 reagent (Invitrogen, Carlsbad Calif.) at a 4:1 ratio of reagent to plasmid DNA using the manufacturers protocol. Cells were harvested 48 hrs post-transfection using trypsin, washed once with phosphate buffered saline (PBS), then suspended in growth media without serum at a concentration of 2×10⁶ cells/ml.
(§2) Primary antibodies at 1 μg/ml were serially diluted at 1:2 or 1:3 in PBS containing 1% bovine serum albumin (BSA) in a 96-well plate. RAGE-transfected 293 cells or control parental 293 cells (50 μl) at 2×10⁶ cells/ml in serum-free growth medium were added to U-bottom 96 well plate for a final concentration of 1×10⁵ cells/well. The cells were centrifuged at 1600 rpm for 2 minutes. The supernatants were gently discarded by hand with a one-time swing and the plate was patted gently to loose the cell pellet. […] The cells were centrifuged and the supernatants are transferred to a fresh plate and read at 450 nm (Soft MAX pro 4.0, Molecular Devices Corporation, Sunnyvale, Calif.).
On the technique in general: In an ELISA, binding on a coated surface is turned into a signal by an enzyme label.

The target in experiment [1] is T2, human RAGE-Fc fusion protein (human, UniProt Q15109 23-344).
T2 construct: also called hRAGE-Fc; huRAGE-Fc; not shown: Fc domain of human IgG
Description: ligand competition ELISA, panel Blocks hRAGE-Fc interaction with A-beta; blocked ligand amyloid beta 1-42 peptide.

Experiment [2] addresses T2, human RAGE-Fc fusion protein. Kind of experiment: ligand competition ELISA, panel Blocks hRAGE-Fc interaction with S100-B; blocked ligand S100-B.
Experiment [3] has as its target T3, murine RAGE-strep tag fusion protein (mouse, UniProt Q62151 23-343).
T3 construct: also called mRAGE-strep; mRAGE-SA
T3 chain: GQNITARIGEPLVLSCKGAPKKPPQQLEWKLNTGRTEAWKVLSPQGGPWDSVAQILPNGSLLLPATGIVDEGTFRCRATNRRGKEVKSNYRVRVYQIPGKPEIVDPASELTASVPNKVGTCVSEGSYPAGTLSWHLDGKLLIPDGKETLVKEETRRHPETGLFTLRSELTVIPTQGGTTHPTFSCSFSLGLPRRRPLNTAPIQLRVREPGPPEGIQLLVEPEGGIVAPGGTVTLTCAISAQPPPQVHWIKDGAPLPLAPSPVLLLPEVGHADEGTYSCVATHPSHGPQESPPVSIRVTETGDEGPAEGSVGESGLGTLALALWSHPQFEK
Kind of experiment: ELISA, mRAGE-strep.

Experiment [4] deals with T2, human RAGE-Fc fusion protein. Kind of experiment: BIACORE direct binding, hRAGE-Fc immobilized. The protocol: The binding of selected murine and rat anti-RAGE antibodies to human and murine RAGE and to the V domains of human and murine RAGE was analyzed by BIACORE® direct binding assay. […] Solution of the anti-RAGE antibodies at two concentrations, 50 and 100 nm, were run over the immobilized RAGE-Fc proteins in duplicate. BIACORE™ technology utilizes changes in the refractive index at the surface layer upon binding of the anti-RAGE antibodies to the immobilized RAGE antigen. Binding is detected by surface plasmon resonance (SPR) of laser light refracting from the surface.
The kinetic rate constants (kₐ and kd) and association and dissociation constants (Kₐ and Kd) for the binding of murine and rat anti-RAGE antibodies to human and murine RAGE were determined by BIACORE™ direct binding assay. Analysis of the signal kinetics data for on-rate and off-rate allows the discrimination between non-specific and specific interactions.

Another experiment addresses T4, murine RAGE, full length (mouse, UniProt Q62151 23-402).
T4 construct: Expressed on 293 cells; also called mRAGE; 293-murine RAGE
T4 chain: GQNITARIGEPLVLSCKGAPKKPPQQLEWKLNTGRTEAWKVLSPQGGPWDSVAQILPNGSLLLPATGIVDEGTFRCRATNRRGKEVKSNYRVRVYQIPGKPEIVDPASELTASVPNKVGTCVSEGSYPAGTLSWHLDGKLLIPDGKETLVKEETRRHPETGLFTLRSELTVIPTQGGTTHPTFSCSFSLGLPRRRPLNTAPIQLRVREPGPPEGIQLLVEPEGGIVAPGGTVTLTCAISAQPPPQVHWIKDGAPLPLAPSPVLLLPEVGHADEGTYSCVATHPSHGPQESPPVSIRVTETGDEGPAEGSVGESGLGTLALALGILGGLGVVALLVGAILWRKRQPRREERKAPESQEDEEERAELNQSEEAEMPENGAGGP
Description: cell-based ELISA, 293 cells transfected with murine RAGE. The protocol: as §1, §2

The next experiment deals with T5, human RAGE, full length (human, UniProt Q15109 23-404).
T5 construct: Expressed on 293 or CHO cells, or endogenous in human lung sections; also called hRAGE; cell-surface hRAGE
Kind of experiment: cell-based ELISA, 293 cells transfected with human RAGE. The protocol:
as §1, §2

B1: XT-M4 (antibody, rat IgG2b, V domains shown)
VH: EVQLVESGGGLVQPGRSLKLSCVVSGFTFNNYWMTWIRQTPGKGLEWVASINNSGDNTYYPDSVKDRFTISRDNAKSTLYLQMNSLRSEDTATYYCTRGGDITTGFDYWGQGVMVTVSS
VL: DIQMTQSPSSMSVSLGDTITITCRASQDVGIYVNWFQQKPGKSPRRMIYRATNLADGVPSRFSGSRSGSIYSLTISSLESEDVADYHCLEFDEHPLTFGSGTKVEIK
notes: also called 1mRAGEP3/10; rat XT-M4
For the molecule B1, the EC50 is around 1.33 nM with baboon RAGE; around 2.2 nM with murine RAGE, full length; around 0.84 nM with human RAGE, full length. Besides, the results for the “IC50 (read off the curve)” value in experiment [1] and in experiment [2] were around 0.2 µg/mL and around 0.1 µg/mL, respectively. For the same molecule, the binding result in experiment [3] is “binds”. Besides, the Ka in experiment [4] amounted to 1e+09 M⁻¹. For the same molecule, the Kd in experiment [4] was determined as 0.995 nM. In addition, the koff in experiment [4] was found to be 0.00116 s⁻¹. The kon in experiment [4] stood at 1.16e+06 M⁻¹ s⁻¹.
